Source: patent US20160075790A1 (Bristol-Myers Squibb, published 2016)
Residue numbers refer to the chain shown, from its start. “And” between values parts separate entries of the source, which are not always exact repeats. Equal values may be shown once.

T1: human isoleucine zipper-CD40L (IZ-hCD40L) (human, UniProt P29965 113-261)
T1 sequence: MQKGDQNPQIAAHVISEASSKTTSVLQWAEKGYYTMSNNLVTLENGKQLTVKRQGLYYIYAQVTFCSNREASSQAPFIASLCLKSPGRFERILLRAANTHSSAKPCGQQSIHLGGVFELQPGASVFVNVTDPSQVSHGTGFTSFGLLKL

T2: human CD40L, membrane-bound on cells (human, UniProt P29965 1-261)
T2 sequence: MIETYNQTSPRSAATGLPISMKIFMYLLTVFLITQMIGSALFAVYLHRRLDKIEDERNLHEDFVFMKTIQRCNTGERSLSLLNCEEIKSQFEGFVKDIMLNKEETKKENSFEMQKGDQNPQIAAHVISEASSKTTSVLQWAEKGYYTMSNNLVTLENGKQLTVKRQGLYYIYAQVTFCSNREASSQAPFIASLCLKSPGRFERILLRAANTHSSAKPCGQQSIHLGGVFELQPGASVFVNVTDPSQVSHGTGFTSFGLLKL

B1: BMS2h-116-1312 (other)
VL: DIQMTQSPSSLSASVGDRVTITCRASQPIGPDLLWYQQKPGKAPKLLIYQTSILRSGVPSRFSGSGSETDFTLTISNLQPEDLATYYCQQYWAFPVTFGKGTKVVIKR
B2: BMS2h-116-1313 (other)
VL: B1 VL with L83F, K100R
B3: BMS2h-116-1320 (other)
VL: B1 VL with S14Y, L83F, T85K, K100Q
B4: BMS2h-116-1319 (other)
VL: B1 VL with L54M, L83F, A93T, K100Q, V105E
B5: BMS2h-116-1314 (other)
VL: B1 VL with Q37R, L83F, K100Q
B6: BMS2h-719-2 (other)
VH: EVQLLESGGGLVQPGGSLRLSCAASGFTFKRYEMMWVRQAPGKGLEWVSSISSDGSFTYYADSVKGRFTISRDNSKNTLYLQMNSLRAEDTAVYYCAEPFTEFDYWGHGTLVTVSS
B7: BMS2h-719-12 (other)
VH: B6 VH with I70V, E98D, H108Q
B8: BMS2h-719-226 (other)
VH: B6 VH with K30N, R31K, V37A, K76R
B9: BMS2h-719-17 (other)
VH: B6 VH with M35S, E98D, F103I, H108Q, L111Q
B10: BMS2h-719-225 (other)
VH: B6 VH with K30N, R31T, M35Q
B11: BMS2h-719-19 (other)
VH: B6 VH with L11W, E98D, H108Q
B12: BMS2h-719-202 (other)
VH: B6 VH with R31K
B13: BMS2h-719-13 (other)
VH: B6 VH with S75T, E98D, F103L
B14: BMS2h-494 (other)
VL: DIQMTQSPSSLSASVGDRVTITCRASQSIDEDLEWYQQKPGKAPRLLIYSSSWLQSGVPSRFSGSGSGTDFTLTISSLQPEDFATYYCQQYFQYPPTFGQGTKVEIKR
B15: BMS2h-494-4 (other)
VL: B14 VL with D1E, I21M, E31K, S56R, Q79R, F98L
B16: BMS2h-494-3 (other)
VL: B14 VL with Y87F
B17: BMS2h-494-6 (other)
VL: B14 VL with S9P, E31K, S56R, Y87H
B18: BMS2h-494-2 (other)
VL: B14 VL with D30E, Q100H
B19: BMS2h-503 (other)
VL: DIQMTQSPSSLSASVGDRVTITCRASHHIQRYLSWYQQKPGKAPKLLILWGSQLQSGVPSRFSGSGSGTDFTLTISSLQPEDFATYYCGQWWAPPPTFGQGTKVEIKR
B20: BMS2h-503-2 (other)
VL: B19 VL with H28D, P96Q
B21: BMS2h-503-1 (other)
VL: B19 VL with P96Q
B22: BMS2h-492-3 (other)
VL: DIQMTQSPSSLSATVGDRVTITCRASQAIETNLEWYQQKPGKAPKLLIYDASMLQSGVPSRFSGSGSGTDFTLTISSLQPEDFATYYCQQYDAYPPTFGQGTKVEIKR
B23: BMS2h-492-7 (other)
VL: B22 VL with T14S, T31H
B24: BMS2h-492-4 (other)
VL: B22 VL with T14S, T31H, S65R
B25: BMS2h-572-632 (other)
VH: EVQLLESGGGLVQPGGSLRLSCAASGFTFKWQLMGWVRQAPGKGLEWVSGIEGPGDVTYYADSVKGRFTISRDNSKNTLYLQMNSLRAEDTAVYYCVKVGKDSKSDYRGQGTLVTVSS
B26: BMS2h-572-604 (other)
VH: B25 VH with D102E, K104N
B27: BMS2h-572-11 (other)
VH: B25 VH with K30N, D102E, K104N, L113Q
B28: BMS2h-572-9 (other)
VH: B25 VH with K30N, V97A, D102E, K104N
B29: BMS2h-572 (other)
VH: B25 VH with K30N, V97A, D102E, K104N, S105F
B30: BMS2h-572-14 (other)
VH: B25 VH with K30N, S75T, D102E, K104N
B31: BMS2h-572-635 (other)
VH: B25 VH with K30N, Q32E, V37A
B32: BMS2h-572-634 (other)
VH: B25 VH with K30N, Q32E, V37A, K104R
B33: BMS2h-572-15 (other)
VH: B25 VH with Q3R, T28N, K30N, V37I, V97A, D102E, K104N
B34: BMS2h-572-6 (other)
VH: B25 VH with K30N, D102E, K104N
B35: BMS2h-437-4 (other)
VL: DIQMTQSPSSLSASVGDRVTITCRASTPIGTMLDWYQQKPGKAPKLLIGHSSWLQSGVPSRFSGCGSGTDFTLTISSLQPEDFATYYCGQHVRPPATFGQGTKVEIKR

How the values were obtained:
[1] = molecular target: T1, human isoleucine zipper-CD40L …; assay: cell-based or functional assay
[2] = molecular target: T2, human CD40L, membrane-bound on cells; assay: cell-based or functional assay

Binder	hIZCD40L-driven Human B Cell Proliferation EC50 [1]	CHO-hCD40L-driven DC Activation IL-12 EC50 [2]	CHO-hCD40L-driven Human B Cell Proliferation EC50 [2]	T-B cell MLR EC50 [2]
B1	23 nM	112 nM	530 nM	234 nM
B2				258 nM
B3	20 nM	32 nM	138 nM	191 nM
B4	180 nM		> 7000 nM	
B5	41 nM	664 nM		1690 nM
B6	82 nM	196 nM	> 7000 nM	
B7	358 nM	266 nM		
B8	164 nM and 247 nM	812 nM		
B9	132 nM	113 nM	236 nM and 268 nM	
B10	253 nM and 198 nM	176 nM		
B11	138 nM	184 nM		
B12	29 nM	79 nM		
B13	50 nM	219 nM		
B14	6100 nM			
B15	590 nM		> 7000 nM	
B16	> 7000 nM			
B17	2000 nM		> 7000 nM	
B18	4800 nM			

Binder	hIZCD40L-driven Human B Cell Proliferation EC50 [1]	CHO-hCD40L-driven DC Activation IL-12 EC50 [2]	CHO-hCD40L-driven Human B Cell Proliferation EC50 [2]	T-B cell MLR EC50 [2]
B19	4200 nM		> 7000 nM	
B20	44 nM	1560 nM	3000 nM	
B21	24 nM	756 nM	2300 nM	
B22	1100 nM		> 7000 nM	
B23	1900 nM			
B24	1700 nM		> 7000 nM	
B25	117 nM	241 nM		
B26	254 nM and 354 nM	387 nM	> 700 nM	
B27	140 nM		> 7000 nM	
B28	324 nM and 243 nM	> 2000 nM		
B29	> 7000 nM			
B30	134 nM	882 nM	> 7000 nM	
B31	29 nM	52 nM		
B32	31 nM	77 nM		
B33	168 nM	876 nM	> 7000 nM	
B34	208 nM		> 7000 nM	> 7000 nM
B35	203 nM	1330 nM	> 7000 nM	
